First the molecules themselves.
B1: NR2E3 LBD (residues 192-410), wild type, as Gal4DBD–NR2E3LBD and VP16AD–NR2E3LBD [human] / itself (parent complex)
chain: DENIDVTSNDPEFPSSPYSSSSPCGLDSIHETSARLLFMAVKWAKNLPVFSSLPFRDQVILLEEAWSELFLLGAIQWSLPLDSCPLLAPPEASAAGGAQGRLTLASMETRVLQETISRFRALAVDPTEFACMKALVLFKPETRGLKDPEHVEALQDQSQVMLSQHSKAHHPSQPVRFGKLLLLLPSLRFITAERIELLFFRKTIGNTPMEKLLCDMFKN

Variants of B1 are the subject of the first experiment. The experiment in a line: mammalian two hybrid assay; pBind-PNR L372/375R + pACT-PNR L372/375R; parent: 0.42; read off a plot.
Consider chain 1 L181R, chain 1 L184R, for which the response was roughly 0.055 RLU.

The variants in a further experiment derive from B1. Kind of experiment: mammalian two hybrid assay; pBind-PNR L372R + pACT-PNR L372R; parent: 0.42; read off a plot.
Take chain 1 L181R: the response was roughly 0.045 RLU.

The variants in the next experiment derive from B1. Kind of experiment: mammalian two hybrid assay; pBind-PNR L375R + pACT-PNR L375R; parent: 0.42; read off a plot.
On to chain 1 L184R, for which the response was roughly 0.045 RLU.
